Test: soluble on expression in E. coli; label from the status in PepcDB or PDB records

Soluble on expression in E. coli, not soluble:
MGSDKIHHHHHHAADPVVVPANMEPLTIEGNRFVTLCIMIRTTPWEVSRDVKLHPRDEVDWHTLEGVRALREAFATNNPNGRLTWGFTMNALEDGRKNYREIRDYVVECQKKYGDEVTYFPGYFPAMYLPRERVNREMSEAIEIISKMVGNGYRPQSIMGGFLSADNLRYLAEKENIHVAHAVIWSQHNIDGGGADGSPSYPFYPSTEHFCKPAQGKSDFIDCVNLDGWTMDFICARRSGQTGHGIDGYNSRRGVGPIETYKGWGLDLGHREVMHTEAIHFDKGLELNGFGWVANIWEAQMVHEFGKDLICDAMKMWVTGTKERWPDTHFVTFGEFGELWRKQYKSNDDWNYRFVERGSGLGDSYNNLEIKWFMNKEFRLALLRDWHTKNSPAYVIDFTRYDLQAHEPADPSPEKPAKDWSLINKINQKALRPQDKPVLIDKLEKEDQDLIRKYYPELLK
MGSDKIHHHHHHAAIPDTGNWISHHLLTSDGLTVLAAGPAFAPLKWNIGQNNMGGYKGRLLFIPYDAPSTVPMIPVKPTTNEDLITASGSFTFPSGGTYTQPIYLYSTKGKVGYKAEIQGETDGKSFKQTLEFFFPGNTPGMHAFSTLVKNTPGYFVFEDSDGQQFLMGKPGMYADVSPSFDGGKLAADQRGTAYTATCDANESAVVLGTPIDMEVIAGLKPAPSPGG
MGSDKIHHHHHHAASVTPSSALLKKSNSYYRSHARALGKKYKLAFDAQSALKKNGKAVIYVNTKDKTLNQSVKLAMAYWNKKLGKTEFTQGSKKNHTLTFGVSTAAASKSDQSDAWWTPMTKKLDVRWSYYTAEKQNIGISMTNQLNKAFYKQYADTIETKAKANLAAKGITTSDKDYLSPFNREASNVETSLPAYTTLKKDVCLVKSTLANEGRKYEYASTIAHEMGHVMGLNHSPNKQDLMYFESGNNNVYSFKKVKAGLSKYNPITTTDKNRAKLALKIYVAAH
MGSDKIHHHHHHADMDGSQNKETENKEIKIILEAETSSQNIFAPIVFYQSFDFGKDAPCLSEVYDSIVWKSSHSPNSFKVFSHSNYARYVETTFFKWAHVYYSPGTYKTYLLGYKNNEIIYSSDTISIDITNKKDFLAFNWKDVTDSDFTTGYANNLDGYYLSTQTHIHQGVPSVMLYAKNEKYEKGGSMKSKQILYNYINSFFSLPNYTATSDESLRKEFSTIFSFQEENAIPLNIWLTPKAKIVLLRKDFKGLESEYKIYAEPGDLI
MGSDKIHHHHHHADTTDNTTTSSSTSANSGSTVQTKALSKAYVVYGAGLASEDKDTVASALGVKSNYTALTATGSDYATYLNAAGTTDASMISSVTLAPADPGTGVKVNIAKYNGSNNITEVTSQQYAMVATMAGVKDVIITVTADKSVSGESALTGVYKALAADGLTLNSQNTQAANGVLDATQPAIDSNSSDKKYPGKLMSAVGSVSSDLAKQRQNGNELATKADIEEMLQKALAKQGIANQTSSTQITNIAIALSQVQKAPVSTSKTYIKNVTNVADSLANSIGDKMASVKDFANSADAKQAENFIVQIWHNVVNFFKGLIGG
MGSDKIHHHHHHAEVADSIEGGNGEAPLEVRAVTGAEVDTRAPAAVEMTEGTLGIFRLAEADYTALDNIRYDRVPGGNWHPVSTVIYVGGTYARLCAYAPYNSVEFKNSSLKTEAGLTMQTYAVEKDMRFAVSGGDEVWKKTPTANFELKRAYARLVLSVVRDATYPNTCKITQAKIKASTGNIITANTVDISTGTEGSGTQTPQYTHTVTTGLKDGFEIGVTDDTSFDWLLPQQTFSGGVVLTLTVDGMDYSVTIPVDKLSTFVRGTKYTVSLVVKGGKLTLMSDKILIDRDWTEVQTGTGGSGSDYDTSFN
MGSDKIHHHHHHAKPVTSETMAAKTVGLQIYSLGKELYADVPGGLKKIKQMGYTNLELAGYKEGKIGGVDMMEFKKMVDDAGLKITSSHVNPPVREYTKANRSQISEYWKKTADDHAKLGVKYLIQPGQPSTRSTEETAFVCEIFNEAGKIVKAAGIPFGYHNHEMEFAKVNPGSTEAKLGRRVKGDCIYELFLKNTDPSLVFFEMDVYWAVMGQQDPIEWLKKYPNRIKVLHIKDRAILGESGMMNFENIFRQAYANGIKDYFVELEGMPDGRSQFEGVKGCVDYLLKAPFVK
MGSDKIHHHHHHASEEDPWESINRPIFTFNDTLDTYALKPLAQGYQKVTPNFVQDGVHNFFNNLGDVKNLANNLLQAKFHNAGVDTSRLLFNSTFGLAGLIDVATPMGLQRNDEDFGQTLGYWGVGSGPYVMLPFLGPSTLRDAPAKIPDIYVSPYHYMDDVRARNVMFGINTVDTRANLLKSEKLISGDKYIFIRNAYLQNREFKVKDGEVEDDF
MGSDKIHHHHHHATETEKDQRKFDYFFYEGLNLKNAGKFDAAYDAFNHCLEIDSTAAPVLYELSSFYVQLNRPEKAVEMLKRAVANSKDNFTYKMALASITRNLGMYGEAAEEYEELVRDYPEKEELNYYLADALTQAGEIGKAIEAYDALESVMGMNEAISMQKYKLYVQLEKPEEAFKEIEKLAAKYPMEARYQIVLGDLHLENGEMDKALACYQKANEIDPTDPYYIVSMANYYEAKGDKEAAEQQIRSALVNEKLDVETKVNILSRYILKLQQTKQGTENANHLFQTLLEQHPEDIDLKLMYGGLLMAQGKTEEAKFQFQLVTEMEPGNAGAWQQLLNLALKGEDIPEVIRICTACMELFPESPEYYFYLGIAYYQQQKYQEALNTYYAGLNIIPKENLPLKSDFYGQIGDIYYQMGQLDQAYKAYDEALKYNDKNVVVLNNYSYFLSLEKKDLKKAERMSAQCIKLEPDNATYLDTYAWIFFVQGNYTLAKIYIESALEKDKTKSAELVDHYGDILFMNGDKEKAVEQWKKAKEMGKDSEILNRKIAEQQYIEDENAK
MGSDKIHHHHHHDMNKLDSDYSVYTDYDNSVHFNEFSTYYLPDSILVPDNSLKANYWKDENAQNIISAVAHEMEQKGYVRTEDKEKANVGIQLSYAQQRIQMTTGGWYGGWWDAGFWGPYWGGGWYYPYPVTYSYDTGTLIMEMVDLRQPADKSNQNKLPVIWHAYASGLLYGNSHFNMQLTLNAVNQAFAQSPYLSNKQ
MGSDKIHHHHHHDTDKGLARRLPPPVPKDQKNDTDVDIKKRNLLVVLINSNNQILCGDQFVDIKQLKERIKEFIDNPYNDEHKPERVEADVPFFGKMMVTKNHVISLQNDRGTEYQAYIDVQNEIAAAYNELRNKVSKEKFGKNFADLDEEQQKAVQQIYPQKISEAEPKNYGGKK
MGSDKIHHHHHHEDDNIRPFGKDVEAGAPGVVSEIKVKNIPGGAVISYQLPDNPDIMYVRARYKVGQGKEMEARASVYANELTVNGFGDMNEHEVELSCVDRMENEGATTVAVVTPLKPSVLTTFESLEVNATFGGVYVNFKNPEKASLSIHVVTTDSLNQPYEAHVQYTQAEKGPFYVRGFKAEERMFDIYVVDRWGNSSDTLYNVLTPYEETRLNKKLFYPYILPNDVACNAWGGNLAYAWNDDYTPALFVHSPGGDTFPMWFTFDMGVTAKLSRYKFYHLFMEEHAFQRGNLKTWEVWGRTDTPPADGSWDGWTKLMDCESHKPSGLPVGQHTAEDWEYLQAGEDFEFPAEAPPVRYIRFKVLETWGGMDFIHFTEFTFWGNVISNN
MGSDKIHHHHHHEEDNTELSEEDRVAEMFREAGFKVEKLSSKPVNPPMTEKEASLFLAAYKNRERSGSIQIPSENIELKPDGHLVVKVKCNSEKKNFSRTRTVYKEEFDFTHWATYTVRDIEIECWQDIAGYWKSDNVNCTFTTRDPEYICGFPDINPNTGYSKGSLYFSINITVSRYSGWQIYSVDENYDYTLMLTWLPVAQEWNASLSWHETFW
MGSDKIHHHHHHEHKDLCYDHPHFATVRVVFDWTKISNHDKPEGMRVVFYPTDDESNTWIFDFPGGEDGEVELPENDYRVICFNYDTDGMVWKENGSYTLFTADTRDVRSPDNQTMAVTPPWLCGDHIDRVILKDIPEGSTKIIRLTPVNMVCHYTYEVNGIRGLDRVADLRAALSGMSGSLNMSGDSLPADLSESLLFDGMVSRNQIIGGFYTFGHSALEGEPNVFRLYLKNRSGSMSVLEQDVSDQVHDVPVAGHIGDVHLVLNFDYEVPSEPGSGGPGFDVDVDDWDDVNVDIVL

Source: the DeepSol protein solubility set
